From paper doi:10.1101/2025.01.28.635311 (bioRxiv, 2025)

B1: C-terminal cleavage product of SET-FL (domain or fragment, human, UniProt Q01105-2 176-277, looked up)
chain: KASRKRQHEEPESFFTWFTDHSDAGADELGEVIKDDIWPNPLQYYLVPDMDDEEGEGEEDDDDDEEEEGLEDIDEEGDEDEGEEDEDDDEGEEGEEDEGEDD

Legend:
[1] = molecular target: bovine histone H1, labelled with NT-647-NHS dye (bovine) (UniProt P02253); assay: MST
[2] = molecular target: N-terminal cleavage product of SET (human, UniProt Q01105-2 17-175); assay: SEC

Chain of bovine histone H1, labelled with NT-647-NHS dye (bovine) (P02253 whole entry): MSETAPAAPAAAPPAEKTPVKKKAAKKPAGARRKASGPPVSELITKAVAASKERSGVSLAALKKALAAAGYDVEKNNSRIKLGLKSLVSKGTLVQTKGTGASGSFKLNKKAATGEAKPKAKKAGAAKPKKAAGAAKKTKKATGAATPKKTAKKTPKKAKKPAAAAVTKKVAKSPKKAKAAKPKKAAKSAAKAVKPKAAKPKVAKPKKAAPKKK

Row | Molecule | Kd [1] | binding result [2]
1 | SET-FL after cleavage by legumain (cleaved SET-FL) (from UniProt Q01105-2 17-175; Q01105-2 176-277) (complex) | 3000 nM | –
2 | full-length SET (SET-FL, 2–277) (from UniProt Q01105-2 2-277) (natural protein) | 3000 nM | –
3 | B1 | – | binds
4 | KASRKRQHEEPESFFTWFTDHSDAGADELGEVIKDDIWPNPLQYYLVPDM (domain or fragment, human, UniProt Q01105-2 176-225, looked up) [C-terminal cleavage product of SETΔC] | – | binds
